Assay results: publication PMC10771500, “Ton motor conformational switch and peptidoglycan role in bacterial nutrient uptake” (Nature Communications, 2024)
Residue numbers refer to the chain shown, from its start. Names may count otherwise.

B1: ExbD construct from E. coli lacking the N-terminal residues 43-60 (ExbD^(Ec, ΔNIBS)) (domain or fragment, Escherichia coli, UniProt P0ABV2 61-141, looked up)
chain: EKPVYLSVKADNSMFIGNDPVTDETMITALNALTEGKKDTTIFFRADKTVDYETLMKVMDTLHQAGYLKIGLVGEETAKAK
notes: ExbD of Escherichia coli, periplasmic domain (43-141) lacking the N-terminal residues 43-60; the limits 61-141 are worked out from these two statements; not shown: His-tag, N-terminal, cleaved
B2: periplasmic domain of ExbD from Serratia marcescens, residues 43-140 (ExbD^(Sm, peri)) (domain or fragment, UniProt V5YUQ0 43-140, looked up)
chain: VDIRVDLPASSAKPQPRPEKPVFLSVKADKQLYVGDQPVNADQLTSVLDQRTQANKETTIFFQADKSVDYETLMSVMDTLRKAGYLKVGLVGMEGAAK
notes: ExbD of Serratia marcescens (Has system), periplasmic domain, residues 43-140; 15N- or 13C,15N-labelled in the NMR samples; also called ExbD^(Sm, peri) wild type (wt); not shown: His-tag, N-terminal, cleaved
B3: ExbD^(Sm, peri) V47C (domain or fragment)
chain: B2 chain with V5C
modifications: disulfide bridge between the Cys 47 of the two subunits
notes: ExbD of Serratia marcescens, periplasmic domain, residues 43-140, with V47C; also called disulfide-bridged ExbD^(Sm, peri) V47C mutant; not shown: His-tag, N-terminal, cleaved
B4: periplasmic domain of ExbD from Escherichia coli, residues 43-141 (ExbD^(Ec, peri)) (domain or fragment, UniProt P0ABV2 43-141, looked up)
chain: VDVKVNLPASTSTPQPRPEKPVYLSVKADNSMFIGNDPVTDETMITALNALTEGKKDTTIFFRADKTVDYETLMKVMDTLHQAGYLKIGLVGEETAKAK
notes: ExbD of Escherichia coli, periplasmic domain, residues 43-141; not shown: His-tag, N-terminal, cleaved
B5: ExbD^(Ec, peri) V47C (domain or fragment, Escherichia coli, UniProt P0ABV2 43-141, looked up)
chain: B4 chain with V5C
modifications: disulfide bridge between the Cys 47 of the two subunits
notes: ExbD of Escherichia coli, periplasmic domain, residues 43-141, with V47C; not shown: His-tag, N-terminal, cleaved
B6: TonB peptide (KKAQPISVTMVTPADLEPPQAKK) (peptide)
peptide: KKAQPISVTMVTPADLEPPQAKK
notes: Probably a synthetic peptide

Tests used:
[1] = target: the molecule itself; test: crystal structure; 2 mM ExbD^(Ec, ΔNIBS) with 10 mM TonB peptide in 50 mM Tris-HCl, 50 mM NaCl, pH 7.0; crystals in 10% w/v glycerol and 3 M ammonium sulfate, 18 °C; 1.5 Å
[2] = target: the molecule itself; test: AUC; sedimentation velocity, 100 μM ExbD alone, 42000 rpm overnight, 50 mM sodium phosphate, 50 mM NaCl, pH 7.0; c(S) model in SEDFIT
[3] = target: T1, periplasmic part of HasB from Serratia marcescens, residues 37-263 (HasB^(Sm, peri)) (Serratia marcescens, UniProt Q79AD1 37-263); test: NMR titration; 2D [1H-15N]-TROSY spectra of 15N-labeled HasB^(Sm, peri) or TonB^(Ec, peri) alone and upon addition of the unlabeled ExbD periplasmic domain; 293 K; details: both partners purified
T1 construct: HasB, the TonB paralog of the Heme Acquisition System of Serratia marcescens, residues 37-263; 15N-labelled in the NMR experiment; also called HasB_(37-263, Sm); source: bacterial expression (20 h at 30 °C), purified (cation exchange, SEC)
T1 sequence (looked up): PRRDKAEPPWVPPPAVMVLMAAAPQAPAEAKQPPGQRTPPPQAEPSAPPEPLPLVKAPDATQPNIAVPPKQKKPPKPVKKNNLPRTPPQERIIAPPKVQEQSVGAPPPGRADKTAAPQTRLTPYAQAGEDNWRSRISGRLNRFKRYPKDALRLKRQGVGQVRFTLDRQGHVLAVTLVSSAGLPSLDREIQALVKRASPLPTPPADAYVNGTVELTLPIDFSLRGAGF

[4] = target: the molecule itself; test: NMR spectra of a disulfide-bridged mutant; NMR fingerprint spectra of the V47C mutants compared with the wild type (Supplementary Fig. 7)
[5] = target: the molecule itself; test: AUC; sedimentation velocity, 100 μM ExbD^(Ec, peri) with 300 μM TonB peptide, 42000 rpm overnight, 50 mM sodium phosphate, 50 mM NaCl, pH 7.0
[6] = target: T2, periplasmic part of TonB from Escherichia coli, residues 34-239 (TonB^(Ec, peri)) (Escherichia coli, UniProt P02929 34-239); test: NMR titration; 2D [1H-15N]-TROSY spectra of 15N-labeled HasB^(Sm, peri) or TonB^(Ec, peri) alone and upon addition of the unlabeled ExbD periplasmic domain; 293 K; details: both partners purified
T2 construct: TonB of Escherichia coli, residues 34-239; 15N-labelled in the NMR experiment; not shown: His-tag, N-terminal, cleaved

[7] = target: B1; test: crystal structure; 2 mM ExbD^(Ec, ΔNIBS) with 10 mM TonB peptide in 50 mM Tris-HCl, 50 mM NaCl, pH 7.0; crystals in 10% w/v glycerol and 3 M ammonium sulfate, 18 °C; 1.5 Å; details: both partners purified
[8] = target: B4; test: NMR titration; 2D [1H-15N]-HMQC spectra of 15N-labeled ExbD periplasmic domain with and without the HasB or TonB peptide; 293 K; details: both partners purified

T2 sequence (P02929 34-239): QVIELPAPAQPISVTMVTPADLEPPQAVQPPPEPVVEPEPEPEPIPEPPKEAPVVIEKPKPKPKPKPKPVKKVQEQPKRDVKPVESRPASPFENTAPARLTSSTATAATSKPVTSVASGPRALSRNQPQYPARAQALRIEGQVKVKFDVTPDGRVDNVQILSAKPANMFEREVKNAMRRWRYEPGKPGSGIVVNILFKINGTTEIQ

B1: binds [1].

In the case of B2, the “stoichiometry N” value [2] is reported as 2 and the binding result [3] is reported as “binds”.

B3: binds [4].

With B4 the “stoichiometry N” value [5] was 2 and the binding result [6] was “binds”.

B5: binds [4].

B6: binds [7]; binds [8].
